# Reference: patent US20160185832A1
# Legend:
# [1] = molecular target: microtubule network of cultured human cells (hTERT-RPE1, 293T) (human) (UniProt P68363); test: cell-based or functional assay
# [2] = molecular target: pure, pre-polymerized, taxol-stabilized microtubules of bovine tubulin (Cytoskeleton) (bovine) (UniProt P81947); test: in vitro microtubule co-sedimentation, percent of construct in the microtubule pellet (FIG. 4D)
# [3] = molecular target: microtubules polymerized in mouse brain homogenate (mouse) (UniProt P05213); test: microtubule co-sedimentation from mouse brain homogenate, western blot (FIG. 6F)
# Chain of microtubules polymerized in mouse brain homogenate (mouse) (P05213 whole entry, chain 1 of 2): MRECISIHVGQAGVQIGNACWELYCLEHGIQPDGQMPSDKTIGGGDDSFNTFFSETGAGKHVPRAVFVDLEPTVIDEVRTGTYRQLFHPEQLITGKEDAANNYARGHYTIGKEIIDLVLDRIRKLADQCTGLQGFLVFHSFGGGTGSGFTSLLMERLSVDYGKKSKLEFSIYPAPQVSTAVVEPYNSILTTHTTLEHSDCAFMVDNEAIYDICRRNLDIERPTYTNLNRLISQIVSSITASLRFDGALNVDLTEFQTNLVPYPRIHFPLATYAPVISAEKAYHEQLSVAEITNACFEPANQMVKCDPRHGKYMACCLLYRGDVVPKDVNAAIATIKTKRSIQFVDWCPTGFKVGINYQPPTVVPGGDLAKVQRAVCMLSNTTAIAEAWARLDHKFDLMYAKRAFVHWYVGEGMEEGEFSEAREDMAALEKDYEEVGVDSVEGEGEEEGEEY
# Chain of microtubules polymerized in mouse brain homogenate (mouse) (Q9CWF2 whole entry, chain 2 of 2, further chain): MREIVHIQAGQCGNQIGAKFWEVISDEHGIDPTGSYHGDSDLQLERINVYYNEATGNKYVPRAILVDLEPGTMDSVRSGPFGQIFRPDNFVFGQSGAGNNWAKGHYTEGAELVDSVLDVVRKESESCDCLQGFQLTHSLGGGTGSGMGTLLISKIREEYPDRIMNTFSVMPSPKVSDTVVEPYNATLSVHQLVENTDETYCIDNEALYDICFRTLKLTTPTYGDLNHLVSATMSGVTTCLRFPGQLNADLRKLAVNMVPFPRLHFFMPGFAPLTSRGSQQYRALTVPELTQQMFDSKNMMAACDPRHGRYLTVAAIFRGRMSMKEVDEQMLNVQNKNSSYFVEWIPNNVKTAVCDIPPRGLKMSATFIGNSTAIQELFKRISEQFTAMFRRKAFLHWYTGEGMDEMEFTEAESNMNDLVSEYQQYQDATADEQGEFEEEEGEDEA
# Chain of microtubule network of cultured human cells (hTERT-RPE1, 293T) (human) (P68363 whole entry, chain 1 of 2): as the sequence (P05213 whole entry, chain 1 of 2) above
# Chain of microtubule network of cultured human cells (hTERT-RPE1, 293T) (human) (P07437 whole entry, chain 2 of 2, further chain): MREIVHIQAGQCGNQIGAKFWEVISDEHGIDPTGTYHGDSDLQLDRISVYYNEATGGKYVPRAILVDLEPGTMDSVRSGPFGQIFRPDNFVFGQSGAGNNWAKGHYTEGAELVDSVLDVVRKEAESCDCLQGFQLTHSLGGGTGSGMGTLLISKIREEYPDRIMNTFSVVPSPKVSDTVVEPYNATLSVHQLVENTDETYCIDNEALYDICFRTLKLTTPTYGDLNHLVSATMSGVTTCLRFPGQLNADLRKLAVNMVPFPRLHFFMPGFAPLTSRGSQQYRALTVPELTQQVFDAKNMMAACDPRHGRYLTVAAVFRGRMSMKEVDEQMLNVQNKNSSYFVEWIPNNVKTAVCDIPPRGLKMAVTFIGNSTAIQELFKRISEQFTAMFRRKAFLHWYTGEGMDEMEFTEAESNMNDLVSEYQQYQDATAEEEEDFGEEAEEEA
# Chain of pure, pre-polymerized, taxol-stabilized microtubules of bovine tubulin (Cytoskeleton) (bovine) (P81947 whole entry, chain 1 of 2): as the sequence (P05213 whole entry, chain 1 of 2) above
# Chain of pure, pre-polymerized, taxol-stabilized microtubules of bovine tubulin (Cytoskeleton) (bovine) (Q6B856 whole entry, chain 2 of 2, further chain): as the sequence (Q9CWF2 whole entry, chain 2 of 2, further chain) above
Substance,percent of transfected cells with increased microtubule acetylation and bundling [1] [%],percent of transfected hTERT-RPE1 cells with a fibrillar localization pattern [1] [%],percent associated with microtubules [2] [%],percent associated with microtubules [3] [%]
"GFP fusion of full length human CEP290 (aa 1-2479), O15078 1-2479",40,10,< 50,
"full length wild type (WT) mouse Cep290 from mouse brain homogenate, Q6A078 1-2472",,,,60
